{
  "source": "patent US20080045697A1",
  "about": "(Genentech, published 2008)",
  "target": "T1, complement C3b (UniProt P01024 23-667; P01024 751-1663)",
  "T1 construct": "range 1-645;range 729-1641; The residue numbers seem to count on C3 without its signal peptide",
  "T1 sequence (P01024 23-667 limits assumed, chain 1 of 2)": "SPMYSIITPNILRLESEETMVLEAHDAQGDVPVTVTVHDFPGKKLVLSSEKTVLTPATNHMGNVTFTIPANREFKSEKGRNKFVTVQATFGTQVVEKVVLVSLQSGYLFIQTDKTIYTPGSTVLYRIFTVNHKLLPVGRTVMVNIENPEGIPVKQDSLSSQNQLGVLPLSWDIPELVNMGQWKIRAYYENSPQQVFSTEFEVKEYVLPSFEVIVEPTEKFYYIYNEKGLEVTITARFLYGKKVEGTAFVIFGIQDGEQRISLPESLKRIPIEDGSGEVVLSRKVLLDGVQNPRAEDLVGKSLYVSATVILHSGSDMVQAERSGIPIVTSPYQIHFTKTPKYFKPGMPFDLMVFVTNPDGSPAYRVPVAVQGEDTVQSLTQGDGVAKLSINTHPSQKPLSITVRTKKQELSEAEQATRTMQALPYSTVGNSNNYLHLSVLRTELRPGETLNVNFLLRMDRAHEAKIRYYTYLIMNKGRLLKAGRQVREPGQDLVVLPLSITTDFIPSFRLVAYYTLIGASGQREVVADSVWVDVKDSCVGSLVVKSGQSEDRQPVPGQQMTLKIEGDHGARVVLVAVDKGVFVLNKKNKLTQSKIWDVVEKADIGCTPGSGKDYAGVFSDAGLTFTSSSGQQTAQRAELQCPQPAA",
  "T1 sequence (P01024 751-1663 limits assumed, chain 2 of 2)": "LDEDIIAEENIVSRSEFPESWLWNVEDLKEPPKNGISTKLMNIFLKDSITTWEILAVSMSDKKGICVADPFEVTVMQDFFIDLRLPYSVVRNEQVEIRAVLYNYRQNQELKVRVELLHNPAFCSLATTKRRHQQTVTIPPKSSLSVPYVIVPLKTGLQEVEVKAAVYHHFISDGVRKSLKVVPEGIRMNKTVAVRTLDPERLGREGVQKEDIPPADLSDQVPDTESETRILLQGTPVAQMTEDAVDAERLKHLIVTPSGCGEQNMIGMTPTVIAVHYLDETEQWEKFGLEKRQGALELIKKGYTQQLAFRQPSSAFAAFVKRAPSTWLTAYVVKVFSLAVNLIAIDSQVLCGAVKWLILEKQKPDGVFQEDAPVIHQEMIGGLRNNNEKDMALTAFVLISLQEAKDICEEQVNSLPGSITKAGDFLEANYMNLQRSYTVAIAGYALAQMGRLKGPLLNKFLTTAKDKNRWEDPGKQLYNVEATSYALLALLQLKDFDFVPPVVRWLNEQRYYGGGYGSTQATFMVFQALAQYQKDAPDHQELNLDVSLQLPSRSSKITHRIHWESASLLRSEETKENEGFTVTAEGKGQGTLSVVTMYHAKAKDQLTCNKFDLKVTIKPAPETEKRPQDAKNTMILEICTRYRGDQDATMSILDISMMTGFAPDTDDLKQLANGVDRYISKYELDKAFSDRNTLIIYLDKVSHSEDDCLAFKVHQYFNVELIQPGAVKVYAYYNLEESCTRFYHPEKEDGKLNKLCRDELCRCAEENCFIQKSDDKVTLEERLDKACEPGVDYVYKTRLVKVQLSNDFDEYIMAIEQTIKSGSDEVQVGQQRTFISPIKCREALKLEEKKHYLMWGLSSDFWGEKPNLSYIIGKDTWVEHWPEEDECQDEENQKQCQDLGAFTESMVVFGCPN",
  "assay": "Fig. S13A-C and results not shown",
  "data": [
    {"binder": "complement factor H (other, UniProt P08603 19-1231, looked up, also called fH) EDCNELPPRRNTEILTGSWSDQTYPEGTQAIYKCRPGYRSLGNVIMVCRKGEWVALNPLRKCQKRPCGHPGDTPFGTFTLTGGNVFEYGVKAVYTCNEGYQLLGEINYRECDTDGWTNDIPICEVVKCLPVTAPENGKIVSSAMEPDREYHFGQAVRFVCNSGYKIEGDEEMHCSDDGFWSKEKPKCVEISCKSPDVINGSPISQKIIYKENERFQYKCNMGYEYSERGDAVCTESGWRPLPSCEEKSCDNPYIPNGDYSPLRIKHRTGDEITYQCRNGFYPATRGNTAKCTSTGWIPAPRCTLKPCDYPDIKHGGLYHENMRRPYFPVAVGKYYSYYCDEHFETPSGSYWDHIHCTQDGWSPAVPCLRKCYFPYLENGYNQNYGRKFVQGKSIDVACHPGYALPKAQTTVTCMENGWSPTPRCIRVKTCSKSSIDIENGFISESQYTYALKEKAKYQCKLGYVTADGETSGSITCGKDGWSAQPTCIKSCDIPVFMNARTKNDFTWFKLNDTLDYECHDGYESNTGSTTGSIVCGYNGWSDLPICYERECELPKIDVHLVPDRKKDQYKVGEVLKFSCKPGFTIVGPNSVQCYHFGLSPDLPICKEQVQSCGPPPELLNGNVKEKTKEEYGHSEVVEYYCNPRFLMKGPNKIQCVDGEWTTLPVCIVEESTCGDIPELEHGWAQLSSPPYYYGDSVEFNCSESFTMIGHRSITCIHGVWTQLPQCVAIDKLKKCKSSNLIILEEHLKNKKEFDHNSNIRYRCRGKEGWIHTVCINGRWDPEVNCSMAQIQLCPPPPQIPNSHNMTTTLNYRDGEKVSVLCQENYLIQEGEEITCKDGRWQSIPLCVEKIPCSQPPQIEHGTINSSRSSQESYAHGTKLSYTCEGGFRISEENETTCYMGKWSSPPQCEGLPCKSPPEISHGVVAHMSDSYQYGEEVTYKCFEGFGIDGPAIAKCLGEKWSHPPSCIKTDCLSLPSFENAIPMGEKKDVYKAGEQVTYTCATYYKMDGASNVTCINSRWTGRPTCRDTSCVNPPTVQNAYIVSRQMSKYPSGERVRYQCRSPYEMFGDEEVMCLNGNWTEPPQCKDSTGKCGPPPPIDNGDITSFPLSVYAPASSVEYQCQNLYQLEGNKRITCRNGQWSEPPKCLHPCVISREIMENYNIALRWTAKQKLYSRTGESVEFVCKRGYRLSSRSHTLRTTCWDGKLEYPTCAKR", "values": [
      {"measurement": "binding result", "value": "binds"}
    ]}
  ]
}
